# According to doi:10.1101/2021.10.12.463902 (bioRxiv, 2021):
# Like-named read-outs stand apart in the source and are kept apart here.
# Legend:
# [1] = target: microtubules of porcine tubulin (GMPCPP or Paclitaxel stabilised, biotin and Alexa-Fluor-633 labelled) (porcine) (UniProt P02550); assay: single-molecule TIRF motility assay on microtubules
# [2] = target: microtubules of porcine tubulin (GMPCPP or Paclitaxel stabilised, biotin and Alexa-Fluor-633 labelled) (porcine) (UniProt P02550); assay: as above; remark: listed apart in the source
# [3] = target: Taxol-stabilized microtubules (unlabeled, Alexa 647-labelled and biotinylated tubulin 50:2:1.5) (not stated (Pork or Bovine brains)) (UniProt P02550); assay: as above
# Sequence of Taxol-stabilized microtubules (unlabeled, Alexa 647-labelled and biotinylated tubulin 50:2:1.5) (not stated (Pork or Bovine brains)) (P02550 whole entry, looked up, the tested form may be a part): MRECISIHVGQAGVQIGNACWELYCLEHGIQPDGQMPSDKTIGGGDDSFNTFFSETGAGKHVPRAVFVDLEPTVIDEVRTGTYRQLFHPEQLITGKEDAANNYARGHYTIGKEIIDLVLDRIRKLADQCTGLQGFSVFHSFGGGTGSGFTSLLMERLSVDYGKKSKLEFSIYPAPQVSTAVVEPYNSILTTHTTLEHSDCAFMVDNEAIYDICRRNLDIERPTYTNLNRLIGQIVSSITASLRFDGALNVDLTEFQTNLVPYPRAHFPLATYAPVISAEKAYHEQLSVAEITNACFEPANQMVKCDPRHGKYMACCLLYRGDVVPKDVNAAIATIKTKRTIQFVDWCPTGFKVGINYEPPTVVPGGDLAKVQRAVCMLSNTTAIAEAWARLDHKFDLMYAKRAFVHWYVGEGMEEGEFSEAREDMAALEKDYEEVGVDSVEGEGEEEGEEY
# [4] = target: Drosophila melanogaster KLP61F BASS-XL (extended Bipolar assembly domain minifilament) (Drosophila melanogaster) (UniProt P46863); assay: crystal structure
# [5] = target: the molecule itself; assay: single-molecule TIRF motility assay on microtubules
# Sequence of microtubules of porcine tubulin (GMPCPP or Paclitaxel stabilised, biotin and Alexa-Fluor-633 labelled) (porcine) (P02550 whole entry, looked up): as the sequence (P02550 whole entry, looked up, the tested form may be a part) above
Molecule,"dwell time at MT plus ends, longer lifetime population [3] [s]","dwell time at MT plus ends, shorter lifetime population [3] [s]",further results
"Drosophila KLP61F kinesin-5 mini-tetramer without tail (kMBX), neon green tagged (from UniProt P46863 1-369; P46863 597-833)",,,dwell time at MT plus ends [1]: 78 s; dwell time at MT plus ends [2]: 25 s
"human Eg5 kinesin-5 mini-tetramer with tail (hMBXt), TMR labelled (from UniProt P52732 1-374; P46863 597-799; P52732 913-1056)",484,16.4,
"human Eg5 kinesin-5 mini-tetramer without tail (hMBX), TMR labelled (from UniProt P52732 1-374; P46863 597-799)",140,14.6,
Drosophila melanogaster KLP61F BASS-XL (extended Bipolar assembly domain minifilament) (from UniProt P46863 620-804) (domain or fragment),,,stoichiometry N [4]: 4
"human Eg5 kinesin-5 mini-tetramer with tail (hMBXt), TMR labelled (other, Homo sapiens | Drosophila melanogaster, UniProt P52732 1-374, looked up, Tetra-methyl Rhodamine (TMR) on the single reactive cysteine in the neck linker (N358C)) MASQPNSSAKKKEEKGKNIQVVVRVRPFNLAERKASAHSIVESDPVRKEVSVRTGGLADKSSRKTYTFDMVFGASTKQIDVYRSVVAPILDEVIMGYNATIFAYGQTGTGKTFTMEGERSPNEEYTWEEDPLAGIIPRTLHQIFEKLTDNGTEFSVKVSLLEIYNEELFDLLNPSSDVSERLQMFDDPRNKRGVIIKGLEEITVHNKDEVYQILEKGAAKRTTAATLMNAYSSRSHSVFSVTIHMKETTIDGEELVKIGKLNLVDLAGSENIGRSGAVDKRAREAGNINQSLLTLGRVITALVERTPHVPYRESKLTRILQDSLGGRTRTSIIATISPASLNLEETLSTLEYAHRAKCILNKPEVNQKLTKKALAQSLQDQTNLHNKLIGEVMKISDQHSQAFVAKLMEQMQQQQLLMSKEIQTNLQVIEENNQRHKAMLDSMQEKFATIIDSSLQSVEEHAKQMHKKLEQLGAMSLPDAEELQNLQEELANERALAQQEDALLESMMMQMEQIKNLRSKNSISMSVHLNKMEESRLTRNHRIDDIKSGIQDYQKLGIEASQSAQAELTSQMEAGMLLEQDLKLDIPTGTTPQRKSYLYPSTLVRTEPREHLLDQLKRKQPELLMMLNSSENNKEETIPDVDVEEAVLGQYTEEPLSQEPSVDAGVDSSSIGGVPFFQHKKSHGKDKENRGINTLERSKVEETTEHLVTKSRLPLRAQINL",,,binding result [5]: binds
